Source: patent US20240400715A1 (VIBRANT PHARMA, published 2024)
Where a chain is given by its changes, count along the chain named. “And” between values parts separate entries of the source, which are not always exact repeats. Equal entries are not always repeated.

B1: Fab-Knob+Hole-CEA (103) (bispecific antibody, human IgG4 S228P, kappa, F234A L235A)
heavy: EVKLLESGGGLVQPKGSLKLSCAASGFTFNTYAMNWVRQAPGKGLEWVARIRSKYNNYATYYADSVKDRFTISRDDSQSILYLQMNNLKTEDTAMYYCVRHGNFGNSYVSWFAYWGQGTLVTVSSASTKGPSVFPLAPCSRSTSESTAALGCLVKDYFPEPVTVSWNSGALTSGVHTFPAVLQSSGLYSLSSVVTVPSSSLGTKTYTCNVDHKPSNTKVDKRVESKYGPPCPPCPAPEAAGGPSVFLFPPKPKDTLMISRTPEVTCVVVDVSQEDPEVQFNWYVDGVEVHNAKTKPREEQFNSTYRVVSVLTVLHQDWLNGKEYKCKVSNKGLPSSIEKTISKAKGQPREPQVYTLPPCQEEMTKNQVSLWCLVKGFYPSDIAVEWESNGQPENNYKTTPPVLDSDGSFFLYSRLTVDKSRWQEGNVFSCSVMHEALHNHYTQKSLSLSL
chain: ESKYGPPCPPCPAPEAAGGPSVFLFPPKPKDTLMISRTPEVTCVVVDVSQEDPEVQFNWYVDGVEVHNAKTKPREEQFNSTYRVVSVLTVLHQDWLNGKEYKCKVSNKGLPSSIEKTISKAKGQPREPQVCTLPPSQEEMTKNQVSLSCAVKGFYPSDIAVEWESNGQPENNYKTTPPVLDSDGSFFLVSRLTVDKSRWQEGNVFSCSVMHEALHNRFTQKSLSLSLGGGGSGGGGSEVQLVESGGGFVQAGESLTLSCTSSTLTFTPYRMAWYRQAPGKQRDLVADISSGDGRTTNYADFAKGRFTISRDNIKNTVFLRMTNLKPEDTAVYYCNTFVSFVGIARSWGQGTQVTVSS
light: QAVVTQESALTTSPGETVTLTCRSSTGAVTTSNYANWVQEKPDHLFTGLIGGTNKRAPGVPARFSGSLIGDKAALTITGAQTEDEAIYFCALWYSNLWVFGGGTKVEIKRTVAAPSVFIFPPSDEQLKSGTASVVCLLNNFYPREAKVQWKVDNALQSGNSQESVTEQDSKDSTYSLSSTLTLSKADYEKHKVYACEVTHQGLSSPVTKSFNRGEC
notes: Anti-CD3 TA1 Fab + anti-CEA VHH C17 on human IgG4 knob-into-hole Fc
B2: CEA-Fab-Knob-+Hole (203) (bispecific antibody, human IgG4 S228P, kappa, F234A L235A)
heavy: B1 heavy
chain: ESKYGPPCPPCPAPEAAGGPSVFLFPPKPKDTLMISRTPEVTCVVVDVSQEDPEVQFNWYVDGVEVHNAKTKPREEQFNSTYRVVSVLTVLHQDWLNGKEYKCKVSNKGLPSSIEKTISKAKGQPREPQVCTLPPSQEEMTKNQVSLSCAVKGFYPSDIAVEWESNGQPENNYKTTPPVLDSDGSFFLVSRLTVDKSRWQEGNVFSCSVMHEALHNRFTQKSLSLSL
light: EVQLVESGGGFVQAGESLTLSCTSSTLTFTPYRMAWYRQAPGKQRDLVADISSGDGRTTNYADFAKGRFTISRDNIKNTVFLRMTNLKPEDTAVYYCNTFVSFVGIARSWGQGTQVTVSSGGGGSGGGGSQAVVTQESALTTSPGETVTLTCRSSTGAVTTSNYANWVQEKPDHLFTGLIGGTNKRAPGVPARFSGSLIGDKAALTITGAQTEDEAIYFCALWYSNLWVFGGGTKVEIKRTVAAPSVFIFPPSDEQLKSGTASVVCLLNNFYPREAKVQWKVDNALQSGNSQESVTEQDSKDSTYSLSSTLTLSKADYEKHKVYACEVTHQGLSSPVTKSFNRGEC
notes: VHH linked to the VL of the Fab; human IgG4 knob-into-hole Fc
B3: CEA-Fab-Knob-+Hole (205) (bispecific antibody, human IgG4 S228P, kappa, F234A L235A)
heavy: EVQLVESGGGFVQAGESLTLSCTSSTLTFTPYRMAWYRQAPGKQRDLVADISSGDGRTTNYADFAKGRFTISRDNIKNTVFLRMTNLKPEDTAVYYCNTFVSFVGIARSWGQGTQVTVSSGGGGSGGGGSEVKLLESGGGLVQPKGSLKLSCAASGFTFNTYAMNWVRQAPGKGLEWVARIRSKYNNYATYYADSVKDRFTISRDDSQSILYLQMNNLKTEDTAMYYCVRHGNFGNSYVSWFAYWGQGTLVTVSSASTKGPSVFPLAPCSRSTSESTAALGCLVKDYFPEPVTVSWNSGALTSGVHTFPAVLQSSGLYSLSSVVTVPSSSLGTKTYTCNVDHKPSNTKVDKRVESKYGPPCPPCPAPEAAGGPSVFLFPPKPKDTLMISRTPEVTCVVVDVSQEDPEVQFNWYVDGVEVHNAKTKPREEQFNSTYRVVSVLTVLHQDWLNGKEYKCKVSNKGLPSSIEKTISKAKGQPREPQVYTLPPCQEEMTKNQVSLWCLVKGFYPSDIAVEWESNGQPENNYKTTPPVLDSDGSFFLYSRLTVDKSRWQEGNVFSCSVMHEALHNHYTQKSLSLSL
chain: B2 chain
light: B1 light
notes: VHH linked to the VH of the Fab; human IgG4 knob-into-hole Fc
B4: Knob+CEA-Fab-Hole (204) (bispecific antibody, human IgG4 S228P, kappa, F234A L235A)
chain: B2 chain with C131Y, S136C, S148W, A150L, V189Y, R217H, F218Y
heavy: B1 heavy with Y354C, C359S, W371S, L373A, Y412V, H440R, Y441F
light: B2 light
notes: as for B2
B5: Knob-CEA+Fab-Hole (105) (bispecific antibody, human IgG4 S228P, kappa, F234A L235A)
chain: B1 chain with C131Y, S136C, S148W, A150L, V189Y, R217H, F218Y
heavy: B1 heavy with Y354C, C359S, W371S, L373A, Y412V, H440R, Y441F
light: B1 light
notes: as for B1
B6: 302 (TA3), configuration of FIG. 1W (bispecific antibody, IgG4)
heavy: EVQLVESGGGLVQPGGSLRLSCAASGYSFTGYTMNWVRQAPGKGLEWVALINPYKGVSTYNQKFKDRFTISVDKSKNTAYLQMNSLRAEDTAVYYCARSGYYGDSDWYFDVWGQGTLVTVSSASTKGPSVFPLAPCSRSTSESTAALGCLVKDYFPEPVTVSWNSGALTSGVHTFPAVLQSSGLYSLSSVVTVPSSSLGTKTYTCNVDHKPSNTKVDKRVESKYGPPCPPCPAPEAAGGPSVFLFPPKPKDTLMISRTPEVTCVVVDVSQEDPEVQFNWYVDGVEVHNAKTKPREEQFNSTYRVVSVLTVLHQDWLNGKEYKCKVSNKGLPSSIEKTISKAKGQPREPQVYTLPPCQEEMTKNQVSLWCLVKGFYPSDIAVEWESNGQPENNYKTTPPVLDSDGSFFLYSRLTVDKSRWQEGNVFSCSVMHEALHNHYTQKSLSLSL
chain: EVQLVESGGGFVQAGESLTLSCTSSTLTFTPYRMAWYRQAPGKQRDLVADISSGDGRTTNYADFAKGRFTISRDNIKNTVFLRMTNLKPEDTAVYYCNTFVSFVGIARSWGQGTQVTVSSESKYGPPCPPCPAPEAAGGPSVFLFPPKPKDTLMISRTPEVTCVVVDVSQEDPEVQFNWYVDGVEVHNAKTKPREEQFNSTYRVVSVLTVLHQDWLNGKEYKCKVSNKGLPSSIEKTISKAKGQPREPQVCTLPPSQEEMTKNQVSLSCAVKGFYPSDIAVEWESNGQPENNYKTTPPVLDSDGSFFLVSRLTVDKSRWQEGNVFSCSVMHEALHNRFTQKSLSLSL
light: DIQMTQSPSSLSASVGDRVTITCRASQDIRNYLNWYQQKPGKAPKLLIYYTSRLESGVPSRFSGSGSGTDYTLTISSLQPEDFATYYCQQGNTLPWTFGQGTKVEIK
notes: chains put together from VH/VL, CH1, knob-Fc; IgG4, kappa; also called CEA-CD3 bispecific antibody 302; not shown: kappa light chain constant domain (CL)
B7: CEA-Knob+Fab-Hole (104) (bispecific antibody, human IgG4 S228P, kappa, F234A L235A)
chain: B6 chain with C251Y, S256C, S268W, A270L, V309Y, R337H, F338Y
heavy: B1 heavy with Y354C, C359S, W371S, L373A, Y412V, H440R, Y441F
light: B1 light
notes: as for B1

Target: T1, human CD3ε/δ (ACRO systems, CDD-H52W1) (human, UniProt P07766 23-126; P04234 22-105)
T1 construct: Bought protein; also called human CD3ϵ/CD3δ; human CD3 epsilon/delta antigen
Experiment: BLI, antibody captured, antigen in solution;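 further: bispecific antibodies captured on AHIC biosensors to a 1.5 nm loading signal, in PBST with 0.02% detergent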
Protocol: The bispecific antibodies were diluted to 5 ag/ml, and 1.5 nm protein was coupled to the surface of the AHIC sensor chip through 0.02% PBST.

| Binder | Kd | koff | kon |
| --- | --- | --- | --- |
| B1 | 0.662 nM | 0.000233 s⁻¹ | 352000 M⁻¹ s⁻¹ |
| B2 | 2.51 nM | 0.000621 s⁻¹ | 248000 M⁻¹ s⁻¹ |
| B3 | 2.38 nM | 0.000666 s⁻¹ | 279000 M⁻¹ s⁻¹ |
| B4 | 2.91 nM | 0.000571 s⁻¹ | 197000 M⁻¹ s⁻¹ |
| B5 | 0.696 nM | 0.000256 s⁻¹ | 367000 M⁻¹ s⁻¹ |
| B6 | 3.63 nM | 0.000879 s⁻¹ | 246000 M⁻¹ s⁻¹ |
| B7 | 0.839 nM | 0.0003 s⁻¹ | 357000 M⁻¹ s⁻¹ |

Target: T2, human CD3 on Jurkat cells (human, UniProt P07766 23-207; P04234 22-171; P09693 23-182)
T2 construct: whole, on cells; CD3 complex as on Jurkat (Clone E6-1) cells; also called CD3 expressing cells (Jurkat)
Experiment: FACS, Jurkat cells;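 further: flow cytometric binding of bispecific antibodies to Jurkat T cells, threefold serial dilutions incubated half an hour in the cold, EC50 taken from the fitted binding curve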

| Binder | EC50 |
| --- | --- |
| B1 | 0.848 µg/mL and 6.52 nM |
| B2 | 0.29 µg/mL and 2.23 nM |
| B3 | 0.195 µg/mL and 1.5 nM |
| B4 | 1.36 µg/mL and 10.4 nM |
| B5 | 0.85 µg/mL and 6.54 nM |
| B6 | 1.4 µg/mL and 10.8 nM |
| B7 | 3.35 µg/mL and 25.8 nM |
